Measured values as given in publication PMC10287910.

How the values were obtained:
[1] = tested on: ParA2 (Vibrio cholerae); assay: EMSA
[2] = tested on: ParA2 K124E (Vibrio cholerae); assay: EMSA
[3] = tested on: ParA2 K124Q (Vibrio cholerae); assay: EMSA
[4] = tested on: ParA2 K124R (Vibrio cholerae); assay: EMSA
[5] = tested on: ParA2-GFP (Vibrio cholerae); assay: EMSA
[6] = biological target: ParA2 ATPase (wild type), Vibrio cholerae chromosome 2 (Vibrio cholerae); assay: SEC-MALS; 40 uM ParA2 alone or pre-incubated with ADP or ATP; Superdex 200 10/300 GL; 50 mM Tris-HCl pH 7.5, 100 mM NaCl, 5.0 mM MgCl2, 0.1 mM EDTA, 1.0 mM DTT, 1.0 mM NaN3; monomer to dimer
[7] = biological target: ParA2 ATPase (wild type), Vibrio cholerae chromosome 2 (Vibrio cholerae)

Q: Which results are given for “CGAGGTCGACGGTATCGATAAGCTTGATATCGAATTCCTGCAGCCCGGGGGATCCACTAGTTCTAGAGC (double strand) [Cy3-69 bp nsDNA]”?
A: Kd [1]: 1 µM; Kd [2]: 0.452 µM; Kd [3]: 0.138 µM; Kd [4]: 0.0471 µM; Kd [5]: 0.04 µM

Q: How did the stoichiometry N [6] turn out when “ParA2 ATPase (wild type), Vibrio cholerae chromosome 2 (enzyme)” was run?
A: 2

Q: Which pre-steady state ATP hydrolysis rate of ParA2 (1.5 uM), stimulation by ParB2 at equimolar concentration [7] does the source give for “ParB2, Vibrio cholerae chromosome 2 (natural protein)” here?
A: 3 fold

Q: And the pre-steady state ATP hydrolysis rate of ParA2 (1.5 uM), stimulation in the presence of both DNA and ParB2 [7]?
A: 8 fold
